One assay concerns the target CK1γ2(h) (Homo sapiens, UniProt P78368). The assay is described as follows: Kinase Profiling Assay. The settings on record: peptide 100 μM. In kind it is biochemical. A digest of the protocol: (§1)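 Radiometric filter-binding format: cationic substrate takes up labeled phosphate from ATP unless the inhibitor peptide blocks the kinase. Substrate bound to an anionic filter, scintillation-counted, normalized to 100% activity control. Duplicates; part of a 266-kinase selectivity panel for MK2 peptides.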

The target of a further assay is c-RAF(h) (Homo sapiens, UniProt P04049). The assay is described as follows: Kinase Profiling Assay. In kind it is biochemical. The settings on record: peptide 100 μM. The method, boiled down: as §1
The next assay addresses PAK6(h) (Homo sapiens, UniProt Q9NQU5). Briefly: Kinase Profiling Assay. In kind it is biochemical. To be noted: peptide 100 μM. The method, boiled down:
as §1

A further assay has as its target FGFR2(N549H)(h) (Homo sapiens, UniProt P21802, N549H). The assay is described as follows: Kinase Profiling Assay. In kind it is biochemical. The settings on record: peptide 100 μM. A digest of the protocol:
as §1

Assay [1] relates to primary lung fibroblasts from patients with IPF. Briefly: Matrigel invasion assay, human IPF fibroblasts. In kind it is cell-based. The settings on record: MK2i treatment. The protocol: (§2) Fibroblasts are critical effector cells in mediating tissue remodeling. […] We have developed a novel model of progressive lung fibrosis based on a cancer metastasis model. […] We hypothesized that fibrotic fibroblasts acquire an invasive phenotype that is essential for progressive fibrogenesis and that CD44 has a critical role in regulating the process. We utilized an assay system in which fibroblasts are evaluated for their ability to spontaneously invade Matrigel, a composite matrix with basement membrane constituents. This assay has been used to analyze the metastatic potential of cancer cells (40).
We have hypothesized that the essential feature of IPF is the development of an invasive fibroblast phenotype that has developed a gene program that facilitates matrix invasion. To determine if the data obtained from the ASMA-HAS2 transgenic mouse model of severe, progressive and destructive fibrosis is relevant to human lung fibrosis, we isolated primary lung fibroblasts from patients with IPF and analyzed their invasive capacity. We found a striking increase in the invasive capacity of IPF fibroblasts compared to fibroblasts isolated from normal lung tissue (FIG. 34).

Assay [2] concerns fibroblasts from human idiopathic pulmonary fibrosis (IPF) lung. Briefly: HA production of fibroblasts. In kind it is cell-based.
The subject of assay [3] is bleomycin-induced lung fibrosis in C57BL/6 mice. To be noted: 37.5 μg/kg daily for 14 d from d14, inhaled or intra-peritoneal; cited from earlier work.
The test system of assay [4] is fibroblasts from bleomycin treated mouse lung. Briefly: Matrigel invasion assay, mouse lung fibroblasts. To be noted: fibroblasts from WT or ASMA-HAS2 mice; 8 μm. In kind it is cell-based. The protocol:
as §2
To determine the role of CD44 in fibroblast invasion we examined the invasive capacity of fibroblasts isolated from CD44 null mice after bleomycin treatment and found impaired invasive capacity (not shown). Similar results were found from fibroblasts isolated from ASMA-HAS2+/CD44−/− mice (FIG. 37 A). Furthermore, treating fibroblasts isolated from bleomycin-challenged wild type C57B1/6J mice with anti-CD44 Abs blunted fibroblast invasion (FIG. 37 B).

Assay [5] relates to alpha-smooth muscle actin (α-SMA). The assay is described as follows: α-SMA immunostaining of lung sections, bleomycin treatment model. In kind it is in vivo, mouse. To be noted: 50 μg/kg/day IP or nebulizer, day 14-28. An excerpt: C57-BL/6 mice were subjected to bleomycin injury at day 0. […] Formalin-fixed lung tissue sections were immunostained against α-SMA. Control staining was with biotinylated secondary IgG antibody. Streptavidin-conjugated horseradish peroxidase was used with 3,3′-diaminobenzidene as substrate and nuclei was counterstained with hematoxylin. Original magnifications: 20×

The next assay concerns the target CLK2(h) (Homo sapiens, UniProt P49760). Briefly: Kinase Profiling Assay. The settings on record: peptide 100 μM. In kind it is biochemical. The method, boiled down:
as §1

The target of a further assay is Plk1(h) (Homo sapiens, UniProt P53350). The assay is described as follows: Kinase Profiling Assay. In kind it is biochemical. To be noted: peptide 100 μM. The method, boiled down:
as §1

A further assay concerns the target CK1γ1(h) (Homo sapiens, UniProt Q9HCP0). Briefly: Kinase Profiling Assay. In kind it is biochemical. To be noted: peptide 100 μM. A digest of the protocol: as §1

No end group written: not given here.

Chain of CK1γ2(h) (P78368 whole entry): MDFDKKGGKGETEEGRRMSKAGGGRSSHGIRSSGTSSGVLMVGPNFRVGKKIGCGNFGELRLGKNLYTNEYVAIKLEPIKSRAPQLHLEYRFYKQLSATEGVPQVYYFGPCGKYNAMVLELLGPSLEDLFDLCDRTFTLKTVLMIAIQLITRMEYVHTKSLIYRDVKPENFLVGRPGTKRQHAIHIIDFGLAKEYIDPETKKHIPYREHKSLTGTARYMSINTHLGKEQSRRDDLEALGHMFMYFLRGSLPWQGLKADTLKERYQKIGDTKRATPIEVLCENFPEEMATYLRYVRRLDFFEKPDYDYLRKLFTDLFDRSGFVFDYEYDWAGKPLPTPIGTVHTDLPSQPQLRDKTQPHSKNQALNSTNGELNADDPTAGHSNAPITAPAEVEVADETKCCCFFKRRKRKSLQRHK
Chain of Plk1(h) (P53350 whole entry): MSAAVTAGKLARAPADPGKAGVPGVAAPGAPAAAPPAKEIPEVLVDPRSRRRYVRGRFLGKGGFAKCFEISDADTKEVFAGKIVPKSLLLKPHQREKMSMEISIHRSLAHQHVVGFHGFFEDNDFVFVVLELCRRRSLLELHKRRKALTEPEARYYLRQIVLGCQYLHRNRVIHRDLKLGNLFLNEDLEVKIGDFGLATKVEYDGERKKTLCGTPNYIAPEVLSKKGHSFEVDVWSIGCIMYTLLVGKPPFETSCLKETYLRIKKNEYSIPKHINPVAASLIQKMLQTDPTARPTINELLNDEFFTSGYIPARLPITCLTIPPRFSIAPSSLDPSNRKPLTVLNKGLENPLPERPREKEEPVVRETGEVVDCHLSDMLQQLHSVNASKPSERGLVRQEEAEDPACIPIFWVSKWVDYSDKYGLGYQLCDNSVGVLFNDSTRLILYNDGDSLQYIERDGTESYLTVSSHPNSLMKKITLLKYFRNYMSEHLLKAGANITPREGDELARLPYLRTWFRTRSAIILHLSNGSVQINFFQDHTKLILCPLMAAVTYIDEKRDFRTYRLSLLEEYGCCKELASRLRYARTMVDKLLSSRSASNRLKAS
Chain of CLK2(h) (P49760 whole entry): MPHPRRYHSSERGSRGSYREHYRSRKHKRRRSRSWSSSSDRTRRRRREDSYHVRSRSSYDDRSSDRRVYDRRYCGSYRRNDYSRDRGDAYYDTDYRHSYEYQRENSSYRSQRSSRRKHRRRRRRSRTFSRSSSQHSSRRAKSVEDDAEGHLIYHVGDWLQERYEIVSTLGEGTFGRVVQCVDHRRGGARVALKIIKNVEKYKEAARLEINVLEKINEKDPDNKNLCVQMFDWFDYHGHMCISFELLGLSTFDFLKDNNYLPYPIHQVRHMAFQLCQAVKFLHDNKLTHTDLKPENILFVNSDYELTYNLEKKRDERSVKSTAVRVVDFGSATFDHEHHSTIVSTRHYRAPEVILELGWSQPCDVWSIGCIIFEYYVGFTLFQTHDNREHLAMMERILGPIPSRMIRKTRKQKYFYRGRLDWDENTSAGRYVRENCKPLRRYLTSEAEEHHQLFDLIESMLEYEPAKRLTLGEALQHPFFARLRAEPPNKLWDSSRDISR
Chain of CK1γ1(h) (Q9HCP0 whole entry): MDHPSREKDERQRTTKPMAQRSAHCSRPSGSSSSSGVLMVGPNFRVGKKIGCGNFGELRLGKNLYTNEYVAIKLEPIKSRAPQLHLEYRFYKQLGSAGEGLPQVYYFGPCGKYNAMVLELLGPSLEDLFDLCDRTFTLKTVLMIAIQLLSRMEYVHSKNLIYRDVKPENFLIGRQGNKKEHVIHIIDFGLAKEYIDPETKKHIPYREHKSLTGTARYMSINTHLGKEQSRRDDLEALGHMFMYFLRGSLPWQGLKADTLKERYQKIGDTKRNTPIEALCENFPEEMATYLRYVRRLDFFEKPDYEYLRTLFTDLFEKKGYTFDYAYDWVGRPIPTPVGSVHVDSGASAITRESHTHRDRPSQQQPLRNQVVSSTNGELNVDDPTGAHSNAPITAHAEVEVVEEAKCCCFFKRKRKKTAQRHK
Chain of FGFR2(N549H)(h) (P21802 22-821 N549H): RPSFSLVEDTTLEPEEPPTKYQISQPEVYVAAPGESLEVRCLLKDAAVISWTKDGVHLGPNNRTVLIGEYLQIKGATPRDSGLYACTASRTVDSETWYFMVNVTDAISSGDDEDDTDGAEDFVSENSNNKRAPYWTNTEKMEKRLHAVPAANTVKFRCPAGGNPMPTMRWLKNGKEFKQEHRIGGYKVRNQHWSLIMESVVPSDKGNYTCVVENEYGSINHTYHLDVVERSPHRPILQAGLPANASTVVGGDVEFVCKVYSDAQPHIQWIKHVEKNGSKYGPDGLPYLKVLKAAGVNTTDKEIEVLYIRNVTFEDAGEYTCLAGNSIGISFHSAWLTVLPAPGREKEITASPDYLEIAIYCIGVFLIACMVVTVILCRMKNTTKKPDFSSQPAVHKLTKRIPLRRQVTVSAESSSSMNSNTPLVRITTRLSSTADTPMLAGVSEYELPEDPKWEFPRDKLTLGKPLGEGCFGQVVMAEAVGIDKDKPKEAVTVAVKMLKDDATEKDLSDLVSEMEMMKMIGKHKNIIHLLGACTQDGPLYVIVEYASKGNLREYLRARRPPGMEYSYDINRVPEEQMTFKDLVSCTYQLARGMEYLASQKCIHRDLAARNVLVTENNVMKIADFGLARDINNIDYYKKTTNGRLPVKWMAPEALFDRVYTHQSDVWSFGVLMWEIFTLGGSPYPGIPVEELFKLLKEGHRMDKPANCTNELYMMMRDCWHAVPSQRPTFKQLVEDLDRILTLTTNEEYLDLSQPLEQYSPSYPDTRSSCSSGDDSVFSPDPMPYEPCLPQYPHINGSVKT
Chain of PAK6(h) (Q9NQU5 whole entry): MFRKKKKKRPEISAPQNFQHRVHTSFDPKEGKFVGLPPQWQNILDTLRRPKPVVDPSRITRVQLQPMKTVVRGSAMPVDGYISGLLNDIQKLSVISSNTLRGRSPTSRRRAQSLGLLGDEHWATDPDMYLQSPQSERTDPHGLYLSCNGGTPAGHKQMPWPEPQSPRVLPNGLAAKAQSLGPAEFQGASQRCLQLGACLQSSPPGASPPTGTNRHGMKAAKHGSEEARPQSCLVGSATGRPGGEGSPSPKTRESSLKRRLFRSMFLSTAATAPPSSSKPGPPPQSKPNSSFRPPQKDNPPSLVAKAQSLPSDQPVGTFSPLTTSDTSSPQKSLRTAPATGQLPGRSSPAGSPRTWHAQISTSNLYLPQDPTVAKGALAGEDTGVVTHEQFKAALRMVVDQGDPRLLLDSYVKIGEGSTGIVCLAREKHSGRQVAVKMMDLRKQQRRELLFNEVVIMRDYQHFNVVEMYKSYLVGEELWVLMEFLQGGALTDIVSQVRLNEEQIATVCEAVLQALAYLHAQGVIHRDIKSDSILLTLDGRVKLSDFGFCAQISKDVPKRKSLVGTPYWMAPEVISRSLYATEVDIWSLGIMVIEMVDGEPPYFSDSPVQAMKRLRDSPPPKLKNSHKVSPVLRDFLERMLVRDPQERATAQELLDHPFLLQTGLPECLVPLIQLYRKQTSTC

FAKLAARLYRKALARQLGVAA [MMI-0300]: in the assay with CK1γ2(h), the “% activity” value came out at 123%.

Regarding “HRRIKAWLKKIKALARQLGVAA (Mammal) [MMI-0500]”, the “% activity” value with c-RAF(h) was 19%.

For the sequence KAFAKLAARLYRKALARQLGVAA [MMI-0400], the “% activity” value in the assay with PAK6(h) stood at 100%.

For YARAAARQARAKALARQLGVAA [MMI-0100], at FGFR2(N549H)(h), the “% activity” value came out at 95%. Further, the “invasive capacity of IPF fibroblasts” value in [1] is “able to inhibit”. For the same sequence, the HA production entry in [2] is reported as “reduced”. For the same sequence, the “progression of fibrosis (collagen deposition, myofibroblast differentiation, activated MK2 expression)” value in assay [3] is recorded as “inhibited”. In assay [4], the fibroblast invasion entry is on record as “significantly reduced”. Also, in [5], the “level of α-SMA in lungs vs untreated bleomycin-injured lungs” value is on record as “significantly attenuated”.

In the case of “YARAAARQARAKALNRQLGVA (Mammal) [MMI-0200]”, the “% activity” value with CLK2(h) turned out to be 97%; in the assay with Plk1(h) it was 128%; with CK1γ1(h), 98%.
